In brackets after ≈: the same amount, converted by molar mass. One block for each molecule: values may come before it. Positions of bridges follow the written chain, without caps; N, C: chain ends. Residues, ends and D or L forms follow the SMILES beside them.
How the values were obtained:
[1] = molecular target: T1, LRP6 E1E2 (Homo sapiens, UniProt O75581); assay: Phage selection / spot phage ELISA against LRP6 E1E2; type: binding
T1 sequence (O75581 20-630 limits assumed): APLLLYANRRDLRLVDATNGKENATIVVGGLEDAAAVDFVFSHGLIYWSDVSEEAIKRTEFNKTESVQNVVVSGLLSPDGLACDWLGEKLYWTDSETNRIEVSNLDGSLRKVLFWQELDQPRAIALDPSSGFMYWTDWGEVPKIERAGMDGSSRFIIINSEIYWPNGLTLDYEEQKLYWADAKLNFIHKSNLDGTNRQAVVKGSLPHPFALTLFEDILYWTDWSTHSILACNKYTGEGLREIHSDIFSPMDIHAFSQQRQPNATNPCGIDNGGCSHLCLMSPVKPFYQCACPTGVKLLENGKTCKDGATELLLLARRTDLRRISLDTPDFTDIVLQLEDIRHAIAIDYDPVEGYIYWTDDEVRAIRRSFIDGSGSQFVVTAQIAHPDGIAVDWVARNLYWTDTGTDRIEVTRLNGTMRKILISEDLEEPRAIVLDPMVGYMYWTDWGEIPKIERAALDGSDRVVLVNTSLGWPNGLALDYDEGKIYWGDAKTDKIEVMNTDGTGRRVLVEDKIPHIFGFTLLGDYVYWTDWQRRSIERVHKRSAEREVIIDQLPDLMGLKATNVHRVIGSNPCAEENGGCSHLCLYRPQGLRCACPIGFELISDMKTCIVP
Protocol: After four rounds of binding selection, individual phage clones were picked and inoculated into 450 μl 2YT media containing 50 µg/ml Carbenecillin and M13-KO7 helper phage in 96-well blocks, which were grown at 37° C. overnight. The supernatant was analyzed with spot phage ELISA as follows: hVEGF(8-109) or BSA were coated on 384-well MAXISORP™ immunoplates and phage supernatant diluted (1:3) with PBT buffer was added to the wells. The plates were washed and bound phage was detected with anti-M13-HRP followed by TMB substrate. In these assays, phage binding to BSA alone was tested in parallel to assess background binding. Clones whose binding signals for hVEGF-A (8-109) were more than 3 times higher than to BSA (background) were considered positive. Positive clones were subjected to DNA sequence analysis.
The naïve EETI-II libraries described in Example 2A were cycled through rounds of selection against LRP6 E1E2 protein. Twenty-two unique clones were identified which bound LRP6 E1E2 (Table 46). These initial hits contained variations in amino acid content within loops 1 and 5. […] The newly evolved variants recapitulated a motif which occurs in natural ligands.

[2] = molecular target: T2, hVEGF-A (8-109) (Homo sapiens, UniProt P15692); assay: Phage competition ELISA; type: binding; conditions: phage competition ELISA, FIG. 15
T2 sequence (P15692 214-315): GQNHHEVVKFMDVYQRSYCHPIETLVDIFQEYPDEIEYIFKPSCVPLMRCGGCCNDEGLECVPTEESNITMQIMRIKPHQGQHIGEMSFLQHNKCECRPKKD

[3] = tested on: mouse or rat VEGF-A; conditions: cited from earlier work
[4] = molecular target: T3, hVEGF-A (Homo sapiens, UniProt P15692); assay: KDR-CHO VEGF assay to determine cellular IC50 (VEGF mediated Tyr phosphorylation of KDR); type: cell-based
T3 sequence (P15692 207-395): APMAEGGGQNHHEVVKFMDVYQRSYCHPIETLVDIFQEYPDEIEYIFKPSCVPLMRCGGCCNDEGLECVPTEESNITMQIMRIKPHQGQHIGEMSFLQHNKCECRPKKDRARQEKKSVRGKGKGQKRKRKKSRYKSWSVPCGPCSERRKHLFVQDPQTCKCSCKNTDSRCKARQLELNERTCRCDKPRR
Protocol: KDR-CHO cells (CHO cells stably transfected with gD tagged-KDR) were grown in cell growth medium (DMEM/Ham's F-12, 10% diafiltered FBS (GIBCO catalog no. 26400), 25 mM HEPES, 2 mM L-GLUTAMAX™). For VEGF stimulation assay, 5×10^4 cells/well were plated in 100 μl of cell plating medium (DMEM/Ham's F-12, 0.2% BSA, 0.25% diafiltered FBS, 25 mM HEPES, 2 mM L-GLUTAMAX™) in 96-well tissue culture plate and incubated at 37° C. overnight. The medium was replaced with 100 I1 of serum-free cell stimulation medium (DMEM/Ham's F-12, 0.5% BSA, 25 mM HEPES) and cells were incubated at 37° C. for 2 hr. One hour before stimulation, the medium was replaced with 50 I1 of serum-free cell stimulation medium. Concurrently, VEGF (50 ng/ml for hVEGF, 100 ng/ml for mVEGF and rVEGF) was pre-incubated with titrated amount of CKP or anti-VEGF in 50 μl of serum-free cell stimulation medium at 37° C. for 1 hour and added to the cells. The cells were stimulated for 15 min at 37 C and the medium is removed. The cells were lysed with 130 I1 of ice-cold cell lysis buffer (150 mM NaCl, 50 mM HEPES, 0.5% Triton-X 100, HALT protease and phosphatase inhibitor cocktail (ThermoFisher Scientific, Inc. catalog no. 78444), 5 mM EDTA). VEGF mediated Tyr phosphorylation of KDR was determined by ELISA-based assay. Briefly, MAXISORP™ 96 well plates (ThermoFisher Scientific, Inc. catalog no. 439454) were coated with 100 I1 of anti-gD antibody diluted in PBS (1 μg/ml) at 4° C. overnight and washed three times with washing buffer (PBS, 0.05% TWEEN®20, pH 7.4). The plates were blocked with 300 I1 of blocking buffer (PBS, 0.5% BSA) at room temperature for 1 hour followed by washing three times with washing buffer. The above KDR-CHO cell lysate (100 μl) was added to each well and incubated at room temperature for 2 hours. The plates were washed four times with washing buffer followed by incubation with 100 I1 of 0.5 μg/ml biotin-conjugated anti-phosphotyrosine (clone 4G10, Millipore catalog no. 16-103) in blocking buffer at room temperature for 2 hours. After washing four times, the plates were incubated with 100 I1 of HRP-conjugated streptavidin in blocking buffer at room temperature for 30 min. After washing four times, the plates were developed with 100 I1 of TMB substrate (BD Biosciences) at room temperature for 20-30 min and stopped by addition of 50 μl of H2SO4 solution. The optical density of each well was determined using a microplate reader set to 450 nm.

[5] = molecular target: T2, hVEGF-A (8-109); assay: SPR binding assay (BIACORE 3000, 37° C.); conditions: SPR affinity (Table 37) and cellular IC50 (Table 38), vs variant without F8Y
Outline: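 VEGF-A, biotinylated and captured on streptavidin sensor or amine-coupled to CM5 at pH 5.0, to about 400 RU. Peptide concentration series in HBS-EP with 0.1% DMSO injected at […]; kinetics and affinities from 1:1 binding model fits.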

[6] = Solubility; type: physicochemical; conditions: vs variant without F8Y; read-out: improvement of solubility by F8Y substitution
Source text: In variants derived from VEGF_CKP9.54 (such as the variants in Table 35) the amino acid at position 8 is Phe. Therefore, we sought to mutate Phe8 to Tyr I in some of the variants in Table 35, with the goal of improving affinity and/or solubility of the resulting F8Y variant. […] See Table 37, in which the binding affinities of certain variants (as determined by surface plasmon resonance) are compared, and Table 38 in which the potencies of certain variants (as determined by cellular IC50) are compared. […] VEGF_CKP9.54.90.67.F8Y was selected for further follow-up studies.

S/N (signal to noise ratio as compared to BSA control) ([1]; LRP6 E1E2 vs BSA control): 37.36
ELISA ([1]; binding signal against LRP6 E1E2): 3.10
Molecule: LRP6_CKP6 (GCRNSIKRCKQNSDCLAGCVCSVGHGCG)

improvement of binding affinity for hVEGF-A (8-109) compared to parent clone [2]: approximately 10 fold
Molecule: 9.54-28: C-terminal two-residue extension variant based on 9.54 (Table 39) (GCNIMLPFWGCKQDFDCLAGCICQYYQSCGFH)

Molecule: bevacizumab
binding to mouse or rat VEGF-A [3]: do not bind

Molecule: GCNIMLPFWGCGQSFECLAGCICQYYQSCGTR [9.54.1-36]
improvement of binding affinity for hVEGF-A (8-109) compared to parent clone [2]: approximately 10 fold

Molecule: GCNIMLPFWGCGQSFECLAGCICQYYQSCGGS [9.54.1-63]
improvement of binding affinity for hVEGF-A (8-109) compared to parent clone [2]: approximately 10 fold

Molecule: GCNIMLPFWGCGQSFECLAGCICQYYQSCGVH [9.54.1-90]
improvement of binding affinity for hVEGF-A (8-109) compared to parent clone [2]: approximately 10 fold

Molecule: CC[C@H](C)[C@@H]1NC(=O)[C@H](Cc2ccccc2)NC(=O)[C@@H]2CSSC[C@H](NC(=O)CNC(=O)[C@H](Cc3c[nH]c4ccccc34)NC(=O)[C@H](Cc3ccccc3)NC(=O)[C@@H]3CCCN3C(=O)[C@H](CC(C)C)NC(=O)[C@H](CCSC)NC(=O)[C@H]([C@@H](C)CC)NC(=O)[C@H](CC(N)=O)NC(=O)[C@@H](NC(=O)CN)CSSC[C@@H](C(=O)N[C@H](C(=O)N[C@H]3CSSC[C@@H](C(=O)NCC(=O)O)NC(=O)[C@H](CO)NC(=O)[C@H](CCC(N)=O)NC(=O)[C@H](Cc4ccc(O)cc4)NC(=O)[C@H](Cc4ccc(O)cc4)NC(=O)[C@H](CCC(N)=O)NC3=O)[C@@H](C)CC)NC(=O)[C@H](CC(N)=O)NC1=O)C(=O)NCC(=O)N[C@@H](CCCNC(=N)N)C(=O)N[C@@H](CC(=O)O)C(=O)N[C@@H](Cc1ccccc1)C(=O)N[C@@H](CCC(=O)O)C(=O)N2 [9.54.90.44] (H-GCNIMLPFWGCGRDFECFINCICQYYQSCG-OH; disulfide 2-21, 11-17, 23-29; N-terminus and C-terminus assumed)
FOLD IMPROVEMENT RELATIVE TO VARIANT 9.54.90 ([4]; Table 36, from cellular IC50): 1.16

Molecule: CC[C@H](C)[C@H](NC(=O)[C@@H]1CSSC[C@H](NC(=O)CN)C(=O)N[C@@H](CC(N)=O)C(=O)N[C@@H]([C@@H](C)CC)C(=O)N[C@@H](CCSC)C(=O)N[C@@H](CC(C)C)C(=O)N2CCC[C@H]2C(=O)N[C@@H](Cc2ccc(O)cc2)C(=O)N[C@@H](Cc2c[nH]c3ccccc23)C(=O)NCC(=O)N[C@H]2CSSC[C@H](NC(=O)[C@H](CCC(=O)O)NC(=O)[C@H](Cc3ccccc3)NC(=O)[C@H](CC(=O)O)NC(=O)[C@H](CCCNC(=N)N)NC(=O)CNC2=O)C(=O)N[C@@H](CCSC)C(=O)N[C@@H](CCC(=O)O)C(=O)N[C@@H](CCC(N)=O)C(=O)N1)C(=O)N[C@H]1CSSC[C@@H](C(=O)NCC(=O)O)NC(=O)[C@H](CO)NC(=O)[C@H](CCC(N)=O)NC(=O)[C@H](Cc2ccc(O)cc2)NC(=O)[C@H](Cc2ccc(O)cc2)NC(=O)[C@H](CCC(N)=O)NC1=O [VEGF_CKP9.54.90.67.F8Y]
effect of F8Y mutation on affinity/potency [5]: modest improvement
solubility [6]: ~2000 µg/mL (≈ 572 µM)

Molecule: CC[C@H](C)[C@H](NC(=O)[C@@H]1CSSC[C@H](NC(=O)CN)C(=O)N[C@@H](CC(N)=O)C(=O)N[C@@H]([C@@H](C)CC)C(=O)N[C@@H](CCSC)C(=O)N[C@@H](CC(C)C)C(=O)N2CCC[C@H]2C(=O)N[C@@H](Cc2ccccc2)C(=O)N[C@@H](Cc2c[nH]c3ccccc23)C(=O)NCC(=O)N[C@H]2CSSC[C@H](NC(=O)[C@H](CCC(=O)O)NC(=O)[C@H](Cc3ccccc3)NC(=O)[C@H](CC(=O)O)NC(=O)[C@H](CCCNC(=N)N)NC(=O)CNC2=O)C(=O)N[C@@H](CCSC)C(=O)N[C@@H](CCC(=O)O)C(=O)N[C@@H](CCC(N)=O)C(=O)N1)C(=O)N[C@H]1CSSC[C@@H](C(=O)NCC(=O)O)NC(=O)[C@H](CO)NC(=O)[C@H](CCC(N)=O)NC(=O)[C@H](Cc2ccc(O)cc2)NC(=O)[C@H](Cc2ccc(O)cc2)NC(=O)[C@H](CCC(N)=O)NC1=O [9.54.90.67] (H-GCNIMLPFWGCGRDFECMEQCICQYYQSCG-OH; disulfide 2-21, 11-17, 23-29; N-terminus and C-terminus assumed)
FOLD IMPROVEMENT RELATIVE TO VARIANT 9.54.90 ([4]; Table 36, from cellular IC50): 1.23
FOLD IMPROVEMENT RELATIVE TO VARIANT 9.54.90 ([4]; Table 38, from cellular IC50): 1.23

Molecule: GCNIMLPFWGCGQSFECLAGCICQYYQSCGIA [9.54.1-2]
improvement of binding affinity for hVEGF-A (8-109) compared to parent clone [2]: approximately 10 fold

Molecule: ranibizumab
binding to mouse or rat VEGF-A [3]: do not bind

Molecule: GCNIMLPFWGCGQSFECLAGCICQYYQSCGLS [9.54.1-42]
improvement of binding affinity for hVEGF-A (8-109) compared to parent clone [2]: approximately 10 fold

— patent publication US11155586B2, “Cystine knot scaffold platform” (Genentech, Inc., priority 2015, dated 2021)
